The values below come from patent US10704056B2, “Constitutively active ABA receptor mutants” (The Regents of the University of California, priority 2011, dated 2020).

The test has as its system Columbia seeds. The test is described as follows: Seed dormancy / germination assay of 35S-driven transgenic lines, stratified vs unstratified. It is filed as in vivo, Arabidopsis. To be noted: 35S-driven overexpression in wild-type Columbia background. On the procedure:
To investigate the effects of the PYL2^CA3 allele, we performed a number of physiological assays on wild-type and aba2-1 genotypes. Columbia (Col), 35S::PYL2, and 35S::PYL2^CA3 seed samples were divided into two portions; one portion was stratified on ⅓ MS plates for 6 days at 4° C. and the second portion was plated six days later ⅓ MS plates. Both samples were the transferred to room temperature (23° C.) and incubated in darkness. […] Each experiment was performed in triplicate and each point plotted represents the average of tests conducted using 40 to 70 seeds. […] Thus, overexpression of PYL2^CA3 activates the ABA-regulated seed dormancy pathway.
In order to assay dormancy of seeds for Columbia, 35S::GFP-PYL2, and 35S::GFP-PYL2^CA3 were divided into two portions and surface sterilized using chlorine gas (prepared in situ using bleach and HCl). One portion was stratified on ⅓ MS agar plates for 6 days at 4° C. in darkness and the second portion, which was maintained at room temperature, was seeded six days later on the ⅓ MS agar plates; both samples were transferred to a 23° C. light-tight growth chamber and germination scored at 24 hour periods. The homozygous 35S::GFP-PYL2 and 35S::GFP-[…] seeds used in these experiments were ˜5- and ˜6-months post-harvest respectively at the time of the experiment shown in FIG. 12.

B1: PYL2^CA3: PYL2 mutant (H65P, V87F, F165V); expressed in plants as 35S-driven GFP fusion (protein)
chain: HHHHHHMSSSPAVKGLTDEEQKTLEPVIKTYHQFEPDPTTCTSLITQRIHAPASVVWPLIRRFDNPERYKPFVKRCRLISGDGDVGSVREVTFISGLPASTSTERLEFVDDDHRVLSFRVVGGEHRLKNYKSVTSVNEFLNQDSGKVYTVVLESYTVDIPEGNTEEDTKMVVDTVVKLNLQKLGVAATSAPMHDDE
For the molecule B1, the “seed hyperdormancy (stratification dependent germination)” value was “induces a state of hyperdormancy in seeds”.
